B1: REF2-I (murine variant of ALYREF) residues 1-155 (domain or fragment)
chain: not shown
notes: Used 15N labelled or unlabelled; source: purified
B2: HSV-1 ICP27 residues 103-155 (domain or fragment)
chain: SVWSRLGARRPSCSPEQHGGKVARLQPPPTKAQPARGGRRGRRRGRGRGGPGA
notes: ICP27 of HSV-1, residues 103-155; Used 15N labelled; also called ICP27^103–155; source: purified
B3: KSHV ORF57 residues 68-178 (domain or fragment)
chain: GRIPKKSQGRSQLRSEIQFCSPLSRPRSPSPVNRYGKKIKFGTAGQNTRPPPEKRPRRRPRDRLQYGRTTRGGQCRAAPKRATRRPQVNCQRQDDDVRQGVSDAVKKLRLP
notes: ORF57 of Kaposi sarcoma herpes virus (KSHV), residues 68-178, in pET-15b; Used 15N labelled or unlabelled; also called ksORF57^68–178

Settings in all cases: both partners purified
Assay [1] addresses T1, KSHV ORF57 residues 153-455 (KSHV, UniProt Q2HR75 153-455).
T1 construct: ORF57 of Kaposi sarcoma herpes virus (KSHV), residues 153-455, in pET-21a; The strep-II-tag and HRV-3C site lay between thioredoxin and ORF57; also called ksORF57Δ153; ORF57Δ153; source: T7 express E. coli, purified (strep-tag resin, HRV-3C cleavage, size exclusion chromatography); not shown: thioredoxin, N-terminal, cleaved; strep-II, N-terminal, cleaved
T1 sequence: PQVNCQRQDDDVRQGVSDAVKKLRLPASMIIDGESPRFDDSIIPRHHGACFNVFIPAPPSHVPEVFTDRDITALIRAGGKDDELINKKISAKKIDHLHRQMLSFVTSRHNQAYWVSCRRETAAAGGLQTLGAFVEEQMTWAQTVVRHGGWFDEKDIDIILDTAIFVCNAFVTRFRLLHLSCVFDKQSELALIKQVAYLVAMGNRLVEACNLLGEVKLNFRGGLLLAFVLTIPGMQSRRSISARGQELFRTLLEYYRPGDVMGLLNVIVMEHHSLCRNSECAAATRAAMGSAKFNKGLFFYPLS
Put plainly: NMR titration; 15N HSQC of the 15N labelled REF2-I construct (target) without and with unlabelled ICP27Δ241 or ksORF57Δ153 (binder); ca. 50 µM; NMR buffer with EDTA decreased to 0.1 mM, pH 6.2; 298 K.

Assay [2] has as its target T2, UIF N-terminal region (residues 1-190), recombinant (human, UniProt Q96QD9 1-190).
T2 construct: UIF, homo sapiens, Uniprot Q96QD9, residues 1-190, in pET-15b; source: T7 express E. coli, purified (TALON resin, size exclusion chromatography)
T2 sequence (looked up): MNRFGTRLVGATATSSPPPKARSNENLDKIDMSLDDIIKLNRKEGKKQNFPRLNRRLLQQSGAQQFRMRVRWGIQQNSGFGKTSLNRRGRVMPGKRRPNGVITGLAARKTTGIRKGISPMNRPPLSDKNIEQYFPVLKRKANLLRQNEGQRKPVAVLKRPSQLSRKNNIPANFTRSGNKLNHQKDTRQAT
The assay can be described thus: NMR titration; 15N HSQC of the 15N labelled protein (target) without and with an equimolar amount of the unlabelled partner (binder); ca. 50 µM; 20 mM sodium phosphate, 50 mM NaCl, 50 mM L-Arg, 50 mM L-Glu, 1 mM EDTA, 2 mM TCEP, pH 6.2; 298 K.

Assay [3] deals with B1. Described as above.

For B1, in assay [1], the binding result is “binds”.

Turning to B2, the binding result in assay [2] and in assay [3] was “binds” throughout.

Consider B3, for which the binding result in assay [2] and in assay [3] was “binds” each time.

Source of the values: paper PMC6177440, “Overlapping motifs on the herpes viral proteins ICP27 and ORF57 mediate interactions with the mRNA export adaptors ALYREF and UIF” (Scientific Reports, 2018).
